Results from publication PMC7855269 (FASEB journal : official publication of the Federation of …, 2020).

Biological target: FLAG-WT CFTR (cystic fibrosis transmembrane conductance regulator) (UniProt P13569 1-1480)
Assay: pull-down

FLAG-WT CFTR (cystic fibrosis transmembrane conductance regulator), sequence (P13569 whole entry): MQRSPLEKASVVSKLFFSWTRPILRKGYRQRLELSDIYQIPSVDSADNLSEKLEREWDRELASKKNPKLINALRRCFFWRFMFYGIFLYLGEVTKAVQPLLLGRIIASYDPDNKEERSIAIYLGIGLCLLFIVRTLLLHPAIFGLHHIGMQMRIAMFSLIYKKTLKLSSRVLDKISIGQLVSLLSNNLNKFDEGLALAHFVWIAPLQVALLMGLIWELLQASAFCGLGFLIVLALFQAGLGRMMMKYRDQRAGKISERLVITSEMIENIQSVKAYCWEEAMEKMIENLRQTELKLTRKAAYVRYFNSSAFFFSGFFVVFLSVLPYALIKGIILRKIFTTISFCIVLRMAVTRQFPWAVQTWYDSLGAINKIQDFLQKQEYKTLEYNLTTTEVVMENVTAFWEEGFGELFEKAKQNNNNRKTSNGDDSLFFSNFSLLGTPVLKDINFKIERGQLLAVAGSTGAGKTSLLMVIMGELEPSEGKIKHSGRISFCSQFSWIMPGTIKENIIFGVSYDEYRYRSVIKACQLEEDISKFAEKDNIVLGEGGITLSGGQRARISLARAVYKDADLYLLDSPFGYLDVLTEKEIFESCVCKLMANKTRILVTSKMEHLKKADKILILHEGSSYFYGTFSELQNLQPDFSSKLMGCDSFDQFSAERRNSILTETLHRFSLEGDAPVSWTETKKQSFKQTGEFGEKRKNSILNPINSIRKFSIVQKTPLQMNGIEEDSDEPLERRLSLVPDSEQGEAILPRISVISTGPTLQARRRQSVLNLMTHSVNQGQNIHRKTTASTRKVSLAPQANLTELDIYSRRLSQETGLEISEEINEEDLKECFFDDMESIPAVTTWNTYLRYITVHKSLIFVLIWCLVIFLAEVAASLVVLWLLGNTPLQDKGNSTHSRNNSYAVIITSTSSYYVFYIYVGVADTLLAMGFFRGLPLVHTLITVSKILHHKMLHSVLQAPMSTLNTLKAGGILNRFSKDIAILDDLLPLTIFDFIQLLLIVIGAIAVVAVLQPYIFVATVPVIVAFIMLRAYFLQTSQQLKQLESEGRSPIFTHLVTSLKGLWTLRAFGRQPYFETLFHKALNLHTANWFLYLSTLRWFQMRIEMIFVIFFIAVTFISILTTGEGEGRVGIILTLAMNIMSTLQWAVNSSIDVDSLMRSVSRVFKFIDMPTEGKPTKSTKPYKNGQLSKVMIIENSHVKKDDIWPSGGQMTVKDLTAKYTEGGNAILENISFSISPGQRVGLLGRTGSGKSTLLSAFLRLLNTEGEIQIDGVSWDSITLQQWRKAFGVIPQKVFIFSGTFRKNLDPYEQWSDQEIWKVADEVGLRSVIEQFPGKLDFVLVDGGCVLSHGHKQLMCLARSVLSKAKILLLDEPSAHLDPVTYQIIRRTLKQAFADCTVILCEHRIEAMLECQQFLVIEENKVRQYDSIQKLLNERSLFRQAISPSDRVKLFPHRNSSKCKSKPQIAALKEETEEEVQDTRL

B1: GST-His-S-Stx17ΔC (Stx17 1–228) (domain or fragment, UniProt P56962 1-228, looked up)
chain: MSEDEEKVKLRRLEPAIQKFIKIVIPTDLERLRKHQINIEKYQRCRIWDKLHEEHINAGRTVQQLRSNIREIEKLCLKVRKDDLVLLKRMIDPVKEEASAATAEFLQLHLESVEELKKQFNDEETLLQPPLTRSMTVGGAFHTTEAEASSQSLTQIYALPEIPQDQNAAESWETLEADLIELSQLVTDFSLLVNSQQEKIDSIADHVNSAAVNVEEGTKNLGKAAKYK
binding result: binds
